{"source": "patent US20180064825A1", "about": "(INSERM INSTITUT NATIONAL DE LA SANTE ET DE LA RECHERCHE …, published 2018)", "key": {"[1]": {"target": "T1, human PD-L1 (Programmed Cell Death 1 Ligand 1) (human, UniProt Q9NZQ7 19-290)", "T1 construct": "whole, on cells; Endogenous PD-L1 on breast cancer cell lines; also called CD274; PDCD1LG1", "T1 sequence (Q9NZQ7 19-290)": "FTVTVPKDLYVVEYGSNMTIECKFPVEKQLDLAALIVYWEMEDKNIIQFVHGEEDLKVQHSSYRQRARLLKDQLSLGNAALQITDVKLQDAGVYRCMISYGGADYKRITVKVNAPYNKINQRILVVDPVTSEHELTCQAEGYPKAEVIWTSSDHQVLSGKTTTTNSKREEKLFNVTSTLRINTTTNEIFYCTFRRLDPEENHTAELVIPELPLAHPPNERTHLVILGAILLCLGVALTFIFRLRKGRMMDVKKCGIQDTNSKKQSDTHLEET", "test": "Scatchard analysis on cells (MDA-MB-231 used for binding assays), 3-3000 pM ^111In-PD-L1.3.1, 4 h on ice, gamma counter; 111In-labeled antibody; Scatchard affinity on MDA-MB-231 cells", "protocol": "(§1) Cells were cultured to confluency in six-well plates and were incubated for 4 h on ice with increasing concentrations ¹¹¹In-PD-L1.3.1 (3-3000 pM) in 1 ml RPMI1640 containing 0.5% BSA. Non-specific binding was determined by co-incubation with 100 nM PD-L1.3.1. After incubation, cells were washed with PBS and the cell-associated activity was measured in a shielded well-type gamma counter. The specific binding (total binding−nonspecific binding) was plotted against the bound/free ratio. Data were analyzed by linear regression to determine PD-L1 receptor density per cell and to determine the Kd of ¹¹¹In-PD-L1.3.1."}, "[2]": {"target": "T1, human PD-L1 (Programmed Cell Death 1 …)", "test": "saturation binding / Scatchard analysis on cells, 3-3000 pM ^111In-PD-L1.3.1 in 1 ml, 4 h on ice, non-specific binding (100 nM PD-L1.3.1) subtracted; the panel does not name the cell line (MDA-MB-231 cells were used in subsequent binding assays)", "protocol": "as §1"}, "[3]": {"target": "T1, human PD-L1 (Programmed Cell Death 1 …)", "test": "competition on MDA-MB-231 cells, 4 h on ice; unlabeled PD-L1.3.1 (1-1000 pM) against 20 pM ^111In-PD-L1.3.1 as competitor; gamma counter; unlabeled antibody; competition IC50 on MDA-MB-231 cells", "protocol": "MDA-MB-231 cells were cultured to confluency in six-well plates. The 50% inhibitory concentration (IC₅₀) of PD-L1.3.1 blocking of ¹¹¹In-PD-L1.3.1 binding was determined by incubating the cells for 4 h on ice in 1 ml RPMI1640 0.5% BSA, containing 20 pM ¹¹¹In-PD-L1.3.1 (1 kBq) and increasing concentrations of unlabeled PD-L1.3.1 (1-1000 pM). After incubation, cells were washed with PBS and the cell-associated activity was measured in a gamma counter. The IC₅₀ was defined as the antibody concentration that was required to inhibit binding of the radio labeled antibody by 50%. IC₅₀ values were calculated using GraphPad Prism."}}, "data": [{"binder": "^111In-DTPA-PD-L1.3.1 (antibody, V domains shown, ITC-DTPA conjugated and chelating ^111In; residues and chain not stated) VH: EVQLQQSGTELVKPGASVKLSCTTSGFNIQDTYMHWVKQRPEQGLEWIGWIDPANGNTKYDPKFQGKATIIADTSSNTAYLQLRGLTSEDTAVYYCARSGVSTAHFDYWGQGTTLTVSS VL: QIVLSQSPAILSASPGEKVTMTCRASSSVSFMHWYQQKPGSSPKPWIYATSNLASGVPTRFSGSGSGTSYSLTLSRVEAEDAATYYCQQWSSYPRTFGGGTKLEIK", "values": [{"measurement": "Kd", "setting": "[1]", "value": 0.97, "unit": "nM"}, {"measurement": "Kd", "setting": "[2]", "value": 1, "unit": "nM"}]}, {"binder": "PD-L1.3.1 antibody (murine monoclonal IgG1, unlabeled) (antibody, V domains shown, also called PD-L1.3.1 mAb; unlabeled PD-L1.3.1) VH: EVQLQQSGTELVKPGASVKLSCTTSGFNIQDTYMHWVKQRPEQGLEWIGWIDPANGNTKYDPKFQGKATIIADTSSNTAYLQLRGLTSEDTAVYYCARSGVSTAHFDYWGQGTTLTVSS VL: QIVLSQSPAILSASPGEKVTMTCRASSSVSFMHWYQQKPGSSPKPWIYATSNLASGVPTRFSGSGSGTSYSLTLSRVEAEDAATYYCQQWSSYPRTFGGGTKLEIK", "values": [{"measurement": "IC50", "setting": "[3]", "value": 0.15, "unit": "nM"}]}]}
